Legend:
[1] = molecular target: T1, yArgRS (yeast cytoplasmic arginyl-tRNA synthetase) (Saccharomyces cerevisiae, UniProt Q05506 1-607); experiment: EMSA; 0.5 uM yArgRS, single tRNA, 10 mM Mg2+; 25 mM Tris-HCl pH 7.5, 75 mM KCl, 10 mM MgCl2, 25% glycerol; 15 min at room temperature (Fig 1 legend: on ice); native 6% PAGE at room temperature; settings: protein: recombinant, tags: none (tag-free native recombinant, E. coli TB1, pTrc99B), label: 32P, tRNA cloverleaf
T1 sequence: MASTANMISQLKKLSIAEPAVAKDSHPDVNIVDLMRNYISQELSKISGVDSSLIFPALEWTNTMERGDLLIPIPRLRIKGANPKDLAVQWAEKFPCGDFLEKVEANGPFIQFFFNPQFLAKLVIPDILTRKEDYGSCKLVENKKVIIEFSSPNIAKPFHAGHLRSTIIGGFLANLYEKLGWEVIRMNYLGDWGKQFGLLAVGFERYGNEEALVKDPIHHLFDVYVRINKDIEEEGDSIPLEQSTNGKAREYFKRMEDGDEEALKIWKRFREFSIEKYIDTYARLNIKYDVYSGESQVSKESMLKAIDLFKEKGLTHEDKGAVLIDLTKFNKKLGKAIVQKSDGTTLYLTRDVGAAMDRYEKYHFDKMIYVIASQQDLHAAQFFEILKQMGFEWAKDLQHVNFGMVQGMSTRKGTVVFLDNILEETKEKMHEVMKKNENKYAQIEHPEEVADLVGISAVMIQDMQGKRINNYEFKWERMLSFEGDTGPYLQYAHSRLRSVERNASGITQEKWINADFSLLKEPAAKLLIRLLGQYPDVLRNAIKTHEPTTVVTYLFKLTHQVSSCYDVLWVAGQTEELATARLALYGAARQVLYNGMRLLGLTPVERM

[2] = molecular target: T1, yArgRS (yeast cytoplasmic arginyl-tRNA …); experiment: EMSA + tRNA microarray (MIST); 0.8 uM yArgRS, total tRNA competition, 10 mM Mg2+; 25 mM Tris-HCl pH 7.5, 75 mM KCl, 10 mM MgCl2, 25% glycerol; 15 min at room temperature (Fig 1 legend: on ice); native 6% PAGE at room temperature; settings: protein: recombinant, tags: none (tag-free native recombinant, E. coli TB1, pTrc99B), label: 5'-32P, tRNA cloverleaf
[3] = molecular target: T1, yArgRS (yeast cytoplasmic arginyl-tRNA …); experiment: EMSA + tRNA microarray (MIST); total tRNA competition, 10 mM Mg2+; 25 mM Tris-HCl pH 7.5, 75 mM KCl, 10 mM MgCl2, 25% glycerol; 15 min at room temperature (Fig 1 legend: on ice); native 6% PAGE at room temperature; settings: protein: recombinant; tags: none (tag-free native recombinant, E. coli TB1, pTrc99B); label: 5'-32P; tRNA cloverleaf
[4] = molecular target: T1, yArgRS (yeast cytoplasmic arginyl-tRNA …); experiment: EMSA + tRNA microarray (MIST); total tRNA competition, 10 mM Mg2+; highest among tRNA Arg; 25 mM Tris-HCl pH 7.5, 75 mM KCl, 10 mM MgCl2, 25% glycerol; 15 min at room temperature (Fig 1 legend: on ice); native 6% PAGE at room temperature; settings: protein: recombinant; tags: none (tag-free native recombinant, E. coli TB1, pTrc99B); label: 5'-32P; tRNA cloverleaf
[5] = molecular target: T1, yArgRS (yeast cytoplasmic arginyl-tRNA …); experiment: EMSA + tRNA microarray (MIST); total tRNA competition, 10 mM Mg2+; strong affinity; 25 mM Tris-HCl pH 7.5, 75 mM KCl, 10 mM MgCl2, 25% glycerol; 15 min at room temperature (Fig 1 legend: on ice); native 6% PAGE at room temperature; settings: protein: recombinant; tags: none (tag-free native recombinant, E. coli TB1, pTrc99B); label: 5'-32P; tRNA cloverleaf, long variable loop (class 2)

B1: tRNA Pro (AGG) transcript (structured_RNA)
RNA: GGGCGUGUGGUCUAGAGGUAUGAUUCUCGCUUAGGGUGCGGGAGGUCCCGGGUUCGAGUCCCGGCUCGCCCC
modifications: none (unmodified transcript)
For B1, the binding signal [1] was 19 % complexed.

B2: native tRNA Pro (AGG) (structured_RNA)
RNA: GGGCGUGUGGUCUAGAGGUAUGAUUCUCGCUUAGGGUGCGGGAGGUCCCGGGUUCGAGUCCCGGCUCGCCCC
modifications: native post-transcriptional modifications (not specified)
B2 gave a binding signal [2] of less than 0.3 fold enrichment vs input.

B3: native tRNA Ser (AGA) (structured_RNA)
RNA: GGCAACUUGGCCGAGUGGUUAAGGCGAAAGAUUAGAAAUCUUUUGGGCUUUGCCCGCGCAGGUUCGAGUCCUGCAGUUGUCG
modifications: native post-transcriptional modifications (not specified)
B3 showed a binding signal ([2]; long variable loop (class 2)) greater than 3 fold enrichment vs input.

B4: native tRNA Gly (GCC) (structured_RNA)
RNA: GCGCAAGUGGUUUAGUGGUAAAAUCCAACGUUGCCAUCGUUGGGCCCCCGGUUCGAUUCCGGGCUUGCGCA
modifications: native post-transcriptional modifications (not specified)
With B4 the binding signal [3] was 4.5 fold lower apparent affinity than tRNA Leu (GAG).

B5: native tRNA Arg (CCU) (structured_RNA)
RNA: GUUCCGUUGGCGUAAUGGUAACGCGUCUCCCUCCUAAGGAGAAGACUGCGGGUUCGAGUCCCGUACGGAACG
modifications: native post-transcriptional modifications (not specified)
In the case of B5, the binding signal [2] is reported as less than 0.3 fold enrichment vs input.

B6: native tRNA Arg (UCU) (structured_RNA)
RNA: GCUCGCGUGGCGUAAUGGCAACGCGUCUGACUUCUAAUCAGAAGAUUAUGGGUUCGACCCCCAUCGUGAGUG
modifications: native post-transcriptional modifications (not specified)
B6: binds [4].

B7: native tRNA Ile (GAT) (structured_RNA)
RNA: GAAACUAUAAUUCAAUUGGUUAGAAUAGUAUUUUGAUAAGGUACAAAUAUAGGUUCAAUCCCUGUUAGUUUCA
modifications: native post-transcriptional modifications (not specified)
In the case of B7, the binding signal [2] is reported as less than 0.3 fold enrichment vs input.

B8: tRNA Asp (GUC) transcript (structured_RNA)
RNA: UCCGUGAUAGUUUAAUGGUCAGAAUGGGCGCUUGUCGCGUGCCAGAUCGGGGUUCAAUUCCCCGUCGCGGAG
modifications: none (unmodified transcript)
B8 gave a binding signal [1] of 35 % complexed.

B9: native tRNA Gly (TCC) (structured_RNA)
RNA: GGGCGGUUAGUGUAGUGGUUAUCAUCCCACCCUUCCAAGGUGGGGACACGGGUUCGAUUCUCGUACCGCUCA
modifications: native post-transcriptional modifications (not specified)
In the case of B9, the binding signal [2] is reported as less than 0.3 fold enrichment vs input.

B10: tRNA Leu (GAG) transcript (structured_RNA)
RNA: GGUACUCUGGCCGAGUGGUCUAAGGCGUCAGGUCGAGGUCCUGAUCUCUUCGGAGGCGCGGGUUCAAACCCCGCGGGUAUCA
modifications: none (unmodified transcript)
B10 showed a binding signal ([1]; long variable loop (class 2)) greater than 60 % complexed.

B11: native tRNA Leu (GAG) (structured_RNA)
RNA: GGUACUCUGGCCGAGUGGUCUAAGGCGUCAGGUCGAGGUCCUGAUCUCUUCGGAGGCGCGGGUUCAAACCCCGCGGGUAUCA
modifications: native post-transcriptional modifications (not specified)
B11 showed a binding signal ([2]; long variable loop (class 2)) greater than 3 fold enrichment vs input.

B12: native tRNA Leu (UAA) (structured_RNA)
RNA: GGAGGGUUGGCCGAGUGGUCUAAGGCGGCAGACUUAAGAUCUGUUGGACGGUUGUCCGCGCGAGUUCGAACCUCGCAUCCUUCA
modifications: native post-transcriptional modifications (not specified)
B12: binds [5].
